# Laboratory results from the supplement of paper PMC9233669.
# This sample holds only a part of the variants without activity.
# Columns and labels:
# biotinyl-Phe-oxazolone = experiment: self-aminoacylation, catalytic enhancement (BFO) (fold over background); higher = more active; k-Seq, kA / k0A0; sequences stand for … in GGGAAUGGAUCCACAUCUACGAAUUC…UUCACUGCAGACUUGACGAAGCUG
# Method in brief: (§1)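 Catalytic enhancement equals the median kA over the uncatalyzed rate, the latter read from the low-activity peak of a bimodal Gaussian fit. Values of kA came from fitting each sequence's fraction reacted to a pseudo-first-order model, with 1000 bootstraps. Reacted RNA was captured with streptavidin and quantified by triplicate qPCR and Illumina sequencing after 90 minutes at room temperature with 2–1250 μM biotinyl-aminoacyl-oxazolone and 0.43 μM mutagenized RNA pools bearing a 21-nt variable region.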
# biotinyl-Ile-oxazolone = experiment: self-aminoacylation, catalytic enhancement (BIO) (fold over background); higher = more active; k-Seq, kA / k0A0; sequences stand for … in GGGAAUGGAUCCACAUCUACGAAUUC…UUCACUGCAGACUUGACGAAGCUG
# Method in brief: as §1
# biotinyl-Met-oxazolone = experiment: self-aminoacylation, catalytic enhancement (BMO) (fold over background); higher = more active; k-Seq, kA / k0A0; sequences stand for … in GGGAAUGGAUCCACAUCUACGAAUUC…UUCACUGCAGACUUGACGAAGCUG
# Method in brief: as §1
# biotinyl-Val-oxazolone = experiment: self-aminoacylation, catalytic enhancement (BVO) (fold over background); higher = more active; k-Seq, kA / k0A0; sequences stand for … in GGGAAUGGAUCCACAUCUACGAAUUC…UUCACUGCAGACUUGACGAAGCUG
# Method in brief: as §1
# biotinyl-Leu-oxazolone = experiment: self-aminoacylation, catalytic enhancement (BLO) (fold over background); higher = more active; k-Seq, kA / k0A0; sequences stand for … in GGGAAUGGAUCCACAUCUACGAAUUC…UUCACUGCAGACUUGACGAAGCUG
# Method in brief: as §1
# biotinyl-Trp-oxazolone = experiment: self-aminoacylation, catalytic enhancement (BWO) (fold over background); higher = more active; k-Seq, kA / k0A0; sequences stand for … in GGGAAUGGAUCCACAUCUACGAAUUC…UUCACUGCAGACUUGACGAAGCUG
# Method in brief: as §1
Sequence,self-aminoacylation (biotinyl-Phe-oxazolone),self-aminoacylation (biotinyl-Ile-oxazolone),self-aminoacylation (biotinyl-Met-oxazolone),self-aminoacylation (biotinyl-Val-oxazolone),self-aminoacylation (biotinyl-Leu-oxazolone),self-aminoacylation (biotinyl-Trp-oxazolone)
GUUACCCUGGUCAUCGAGUUA [Fam2.1 aminoacylation ribozyme variant],23.1,4.48,12,5.21,11.1,10
CCACGCUUCAAGCAAUCGGUC [Fam1B.1 aminoacylation ribozyme variant],76.9,1.2,1.37,1.54,2.11,39.9
AACUUUGCUAAUAGUCGAAAG [Fam3.1 aminoacylation ribozyme variant],2.63,2.25,2.31,1.87,2.47,2.01
AAGUUUGCUACUAGUCGCAAC [Fam3.1 aminoacylation ribozyme variant],0.697,0.737,0.845,0.874,0.763,0.917
AUUCACCUGGGUCAUGGGGUG [Fam2.2 aminoacylation ribozyme variant],51.6,4.05,6.65,4.9,9.15,6.16
AAGUUUUCUAAUAGUGGCAAG [Fam3.1 aminoacylation ribozyme variant],0.75,0.856,0.758,0.662,0.804,0.658
AUUCACGUAGGUCAUCGGCUG [Fam2.2 aminoacylation ribozyme variant],6.6,2.35,2.35,3.36,2.91,3.17
UAGUUUGCUAAUAAUCGCAAG [Fam3.1 aminoacylation ribozyme variant],1.77,1.11,1.04,1.12,0.887,0.875
AUUCACCUACGUCAUCGGGUG [Fam2.2 aminoacylation ribozyme variant],36.7,3.24,5.27,3.38,6.98,4.79
AAUUUUGCUAAUAGUCUCAAG [Fam3.1 aminoacylation ribozyme variant],2.56,1.38,1.21,1.26,1.19,1.23
AAGUUUGCUGAUAGUCGCAAA [Fam3.1 aminoacylation ribozyme variant],3.33,1.71,1.38,1.55,1.6,1.19
CUACUUCAAACAAUCUGUUUG [Fam1A.1 aminoacylation ribozyme variant],0.912,0.788,0.713,0.838,0.76,0.635
AAGUUUACUACUAGUCGCAAG [Fam3.1 aminoacylation ribozyme variant],2.04,1.57,1.46,1.6,1.27,1.76
AAGUUUGCUAAAAGUCGCGAG [Fam3.1 aminoacylation ribozyme variant],2.4,1.7,2.21,1.68,2.1,2.34
AUUACCCUGCACAUCGAGUGA [Fam2.1 aminoacylation ribozyme variant],29.8,3.01,6.87,3.65,7.49,8.38
AUCCACCUAGGUCAUCUGGUG [Fam2.2 aminoacylation ribozyme variant],26.4,2.26,2.77,2.28,3.74,2.77
AUUACCCUAGUUAUCGAGUGA [Fam2.1 aminoacylation ribozyme variant],50.7,3.77,8.68,3.83,8.3,11.1
UUUGCCCUGGUCAUCGAGUGA [Fam2.1 aminoacylation ribozyme variant],294,16.5,45.5,18.1,41,46.1
AUUCACCUAGGUCAUUGGGUU [Fam2.2 aminoacylation ribozyme variant],5.73,1.23,1.34,1.19,1.15,1.52
CCACACUUCAAGGAAGCGGUC [Fam1B.1 aminoacylation ribozyme variant],0.364,0.986,1.06,1.28,1.13,0.619
AAGUUUGCUUAUAGACGCAAG [Fam3.1 aminoacylation ribozyme variant],0.84,0.591,0.559,0.585,0.495,0.629
AGGUUUGCUAAUAGACGCAAG [Fam3.1 aminoacylation ribozyme variant],0.835,0.608,0.529,0.752,0.594,0.609
AUUACACUGGUCAUCGAGUGC [Fam2.1 aminoacylation ribozyme variant],0.887,1.06,1.32,1.05,1.38,1.56
AUUCGCCUAGGUCAUCGAGUG [Fam2.2 aminoacylation ribozyme variant],29.3,8.77,11.7,7.39,15.9,7.17
AAAUAUGCUAAUAGUCGCAAG [Fam3.1 aminoacylation ribozyme variant],2.27,2.03,1.45,1.55,1.44,2.25
CCACACUUCAAGCAAUCUGAC [Fam1B.1 aminoacylation ribozyme variant],0.63,0.493,0.41,0.549,0.325,0.429
